According to FireProtDB (doi:10.1021/bi300982v):

Settings: Thermus thermophilus, pH 7, sodium phosphate 50 mM, transition: 2, reversible: yes, whole UniProt chain shown; for denaturant midpoint (higher = more stable): 25 °C, GdnHCl

B1: Cytochrome c-552 wild type, P04164 (protein)
chain: QADGAKIYAQCAGCHQQNGQGIPGAFPPLAGHVAEILAKEGGREYLILVLLYGLQGQIEVKGMKYNGVMSSFAQLKDEEIAAVLNHIATAWGDAKKVKGFKPFTAEEVKKLRAKKLTPQQVLAERKKLGLK
Q: With B1 as the protein, how does the “denaturant midpoint (higher = more stable)” value (“denaturant midpoint” below) (absorbance) read?
A: The value was 3.6 M.

Q: What about the “denaturant midpoint” value (far-UV-CD) of the same protein?
A: Its value is 4.1 M.

Q: And the “denaturant midpoint” value (heme-CD)?
A: The value was 3.4 M.

Q: What about the Tm (Thermal, CD) of the same protein?
A: The Tm was 95 °C.

Q: And the “heat capacity change of unfolding” value (Thermal, CD)?
A: The value was 0.31 kcal/mol/K.

Q: What about the “unfolding enthalpy (calorimetric)” value (Thermal, CD) of the same protein?
A: Its value is 30.4 kcal/mol.

Q: What about the unfolding free energy (Thermal, CD) of the same protein?
A: Its unfolding free energy is 3.11 kcal/mol.
